Reference: PMC11514449
Where two headings read alike, the source gives them in different places.

Assays:
[1] = biological target: T1, Dmc1;Mei5-Sae3 complex (Saccharomyces cerevisiae;Saccharomyces cerevisiae) (UniProt P25453+P32489+P89114); assay: smFRET + GFP colocalization; conditions: internal Cy3 between T12 and T21
T1 sequence 1: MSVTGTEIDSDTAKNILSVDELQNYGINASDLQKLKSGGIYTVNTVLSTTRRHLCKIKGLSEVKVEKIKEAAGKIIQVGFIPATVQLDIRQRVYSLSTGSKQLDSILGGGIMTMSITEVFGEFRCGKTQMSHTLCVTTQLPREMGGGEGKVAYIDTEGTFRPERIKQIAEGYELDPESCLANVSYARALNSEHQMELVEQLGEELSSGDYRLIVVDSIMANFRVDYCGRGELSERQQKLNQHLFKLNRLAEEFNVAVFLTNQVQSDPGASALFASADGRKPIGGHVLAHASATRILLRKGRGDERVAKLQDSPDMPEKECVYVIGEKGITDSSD
T1 sequence 2: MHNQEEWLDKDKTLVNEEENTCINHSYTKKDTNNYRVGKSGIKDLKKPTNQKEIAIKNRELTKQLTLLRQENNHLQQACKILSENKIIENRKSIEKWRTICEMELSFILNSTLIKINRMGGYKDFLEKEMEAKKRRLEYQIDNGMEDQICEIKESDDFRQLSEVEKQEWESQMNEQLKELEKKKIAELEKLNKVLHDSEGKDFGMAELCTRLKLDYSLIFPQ
T1 sequence 3: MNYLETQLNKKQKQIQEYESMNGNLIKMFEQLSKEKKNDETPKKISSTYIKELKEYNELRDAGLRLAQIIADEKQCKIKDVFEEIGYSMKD

[2] = biological target: T2, Dmc1 (Saccharomyces cerevisiae) (UniProt P25453); assay: smFRET, RPA displacement; conditions: internal Cy3 between T12 and T18
T2 sequence: T1 sequence 1

[3] = biological target: T3, Dmc1;Mei5-Sae3 complex (Saccharomyces cerevisiae;Saccharomyces …, UniProt P25453;P32489;P89114 1-334;1-222;1-91, |); assay: nuclease protection
T3 sequence 1: T1 sequence 1
T3 sequence 2: T1 sequence 2
T3 sequence 3: T1 sequence 3

[4] = biological target: T4, RPA (Saccharomyces cerevisiae, UniProt P22336;P26754;P26755 1-621;1-273;1-122); assay: EMSA
T4 sequence (P22336 whole entry, chain 1 of 3): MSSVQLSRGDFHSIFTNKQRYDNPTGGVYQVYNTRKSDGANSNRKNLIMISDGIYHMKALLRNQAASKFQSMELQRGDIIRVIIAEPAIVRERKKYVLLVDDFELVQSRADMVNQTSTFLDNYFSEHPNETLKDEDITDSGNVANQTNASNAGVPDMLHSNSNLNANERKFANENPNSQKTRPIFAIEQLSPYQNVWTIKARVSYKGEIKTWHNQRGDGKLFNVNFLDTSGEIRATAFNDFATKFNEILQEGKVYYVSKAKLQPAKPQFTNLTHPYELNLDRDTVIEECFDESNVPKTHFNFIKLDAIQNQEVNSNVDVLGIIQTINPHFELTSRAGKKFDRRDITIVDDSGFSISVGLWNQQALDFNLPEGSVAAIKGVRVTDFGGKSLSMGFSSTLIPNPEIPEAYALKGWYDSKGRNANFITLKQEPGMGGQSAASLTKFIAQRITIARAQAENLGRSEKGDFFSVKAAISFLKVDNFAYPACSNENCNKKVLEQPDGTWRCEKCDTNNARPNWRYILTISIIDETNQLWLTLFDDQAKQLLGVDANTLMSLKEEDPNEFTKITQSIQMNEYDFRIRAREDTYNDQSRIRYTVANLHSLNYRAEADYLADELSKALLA
T4 sequence (P26754 whole entry, chain 2 of 3): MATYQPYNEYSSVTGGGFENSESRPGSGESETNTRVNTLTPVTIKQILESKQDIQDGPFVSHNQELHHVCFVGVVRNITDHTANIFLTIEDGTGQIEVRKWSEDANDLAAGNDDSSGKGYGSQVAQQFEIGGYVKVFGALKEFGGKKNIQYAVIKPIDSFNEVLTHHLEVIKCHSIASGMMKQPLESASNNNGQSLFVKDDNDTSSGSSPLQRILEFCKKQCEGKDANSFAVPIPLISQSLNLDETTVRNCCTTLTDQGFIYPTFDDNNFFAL
T4 sequence (P26755 whole entry, chain 3 of 3): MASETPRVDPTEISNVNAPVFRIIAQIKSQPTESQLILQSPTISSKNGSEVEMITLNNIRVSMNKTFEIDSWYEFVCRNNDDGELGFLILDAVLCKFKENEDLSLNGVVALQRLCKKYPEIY

[5] = biological target: RPA-GFP (Rfa2-eGFP) (Saccharomyces cerevisiae, UniProt P22336;P26754;P26755 1-621;1-273;1-122); assay: EMSA
Sequence of RPA-GFP (Rfa2-eGFP) (P22336 whole entry, chain 1 of 3): as the sequence (P22336 whole entry, chain 1 of 3) above
Sequence of RPA-GFP (Rfa2-eGFP) (P26754 whole entry, chain 2 of 3): as the sequence (P26754 whole entry, chain 2 of 3) above
Sequence of RPA-GFP (Rfa2-eGFP) (P26755 whole entry, chain 3 of 3): as the sequence (P26755 whole entry, chain 3 of 3) above

[6] = biological target: T5, Dmc1 (Saccharomyces cerevisiae, UniProt P25453 1-334); assay: smFRET
T5 sequence: T1 sequence 1

[7] = biological target: T4, RPA; assay: smFRET
[8] = biological target: T3, Dmc1;Mei5-Sae3 complex; assay: smFRET
[9] = biological target: T5, Dmc1; assay: smFRET; remark: listed apart in the source

“TGGCGACGGCAGCGAGGCTTTTTTTTTTTTTTTTTTTTTTTTTTTTTTTTT / GCCTCGCTGCCGTCGCCA [dT12+21]” showed a binding signal (% RPA displaced) [1] of 50.

“TGGCGACGGCAGCGAGGCTTTTTTTTTTTTTTTTTTTTTTTTTTTTTT / GCCTCGCTGCCGTCGCCA [dT12+18]” showed a Kd [2] of 1900 nM.

B1: Oligo 1 (80-mer) (ssDNA)
DNA: TTATGTTCATTTTTTATATCCTTTACTTTATTTTCTCTGTTTATTCATTTACTTATTTTGTATTATCCTTATCTTATTTA
B1: binds [3].

B2: Oligo 4 (90-mer) (ssDNA)
DNA: AAATCAATCTAAAGTATATATGAGTAAACTTGGTCTGACAGTTACCAATGCTTAATCAGTGAGGCACCTATCTCAGCGATCTGTCTATTT
B2: binds [4]; binds [5].

B3: dT9 (mixed)
DNA 1: TGGCGAGCAGCGAGGCTTTTTTTTT
DNA 2: GCCTCGCTGCCGTCGCCA
For B3, the Kd [6] was 1400 ± 39 nM and the binding result [7] was “binds”.

B4: dT13 (mixed)
DNA 1: TGGCGACGGCAGCGAGGCTTTTTTTTTTTTT
DNA 2: GCCTCGCTGCCGTCGCCA
B4: binds [8].

B5: dT7 (mixed)
DNA 1: TGGCGACGCAGCGAGGCTTTTTTT
DNA 2: GCCTCGCTGCCGTCGCCA
B5 was tested, and the Kd [9] was 1720 ± 77 nM.
